Measured values from paper doi:10.1101/2021.03.25.436565.
Where two headings read alike, the source gives them in different places.

Tests used:
Experiment in all cases: EMSA
[1] = target: T1, CSB-HD (helicase-like domain) (human, UniProt Q03468 498-1002)
[2] = target: T1, CSB-HD (helicase-like domain); remark: listed apart in the source
[3] = target: T1, CSB-HD (helicase-like domain); remark: listed apart in the source
[4] = target: T1, CSB-HD (helicase-like domain); remark: listed apart in the source
[5] = target: T1, CSB-HD (helicase-like domain); remark: listed apart in the source

T1 sequence (Q03468 498-1002): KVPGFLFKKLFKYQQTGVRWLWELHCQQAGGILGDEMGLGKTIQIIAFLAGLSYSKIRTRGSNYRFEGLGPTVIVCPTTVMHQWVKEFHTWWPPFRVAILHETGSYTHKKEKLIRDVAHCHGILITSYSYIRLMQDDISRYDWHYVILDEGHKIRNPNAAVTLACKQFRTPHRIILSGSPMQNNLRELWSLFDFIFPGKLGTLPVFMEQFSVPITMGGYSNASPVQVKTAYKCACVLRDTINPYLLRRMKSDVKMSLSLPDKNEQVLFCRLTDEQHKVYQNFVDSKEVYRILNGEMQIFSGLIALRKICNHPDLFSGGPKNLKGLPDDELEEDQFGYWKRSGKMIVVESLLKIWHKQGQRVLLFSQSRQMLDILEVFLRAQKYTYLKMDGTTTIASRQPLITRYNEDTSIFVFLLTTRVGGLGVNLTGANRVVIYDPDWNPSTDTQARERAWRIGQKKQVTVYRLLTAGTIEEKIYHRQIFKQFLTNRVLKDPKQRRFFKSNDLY

3'-tailed rDNA
Kd [1]: 0.176 nM

5'-tailed rDNA, annealed in KCl (intermolecular G4)
Kd [1]: 0.557 nM

ATAATTATAAATAAATAATAGGGAGGGAGACGGGGGGG (structured_DNA) [5'-tailed rDNA-3]
Kd [2]: 0.977 nM

TGAGGGTGGGTAGGGTGGGTAA (structured_DNA) [untailed c-MYC]
binding result [3]: no binding

AGGGTCGGGGGGTGGGGCCCGGGCCGGGG (structured_DNA) [untailed rDNA-2]
binding result [3]: no binding

ATAATTATAAATAAATAATAGGGTCGGGGGGTGGGGCCCGGGCCGGGG (structured_DNA) [5'-tailed rDNA-2]
Kd [2]: 0.36 nM

AAATGGGTGGGTAGGGTGGGTATAATTATAAATAAATAATA (structured_DNA) [3'-tailed c-MYC]
binding result [4]: no binding

ATAATTATAAATAAATAATGGGGTTTTGGGG (structured_DNA) [5'-tailed O. nova d(G4T4G4)]
Kd [5]: 0.00988 nM
